Data on four molecules can be found in paper PMC7170509, “Substrate recognition and ATPase activity of the E. coli cysteine/cystine ABC transporter YecSC-FliY” (The Journal of Biological Chemistry, 2020).

For assay [1], the target named is T1, FliY (Escherichia coli, UniProt P0AEM9).
T1 construct: gene tcyJ; C-terminal His6 tag (pET21b); expressed in E. coli BL21-Gold(DE3), purified from osmotic shock extract; monomer
Kind of assay: isothermal titration calorimetry. The class given is binding. (In general: In ITC the heat of successive injections is recorded.)

Assay [2] has as its target T1, FliY. Kind of assay: nanoDSF thermal shift. The note with it: 30 μM FliY, 200 μM ligand; 50 mM Tris-HCl pH 7.5, 250 mM NaCl. In kind it is binding. In general terms: DSF heats the sample and reads unfolding from a dye or from intrinsic fluorescence.
Assay [3] deals with T2, YecSC, the E. coli cysteine/cystine ABC transporter (YecS transmembrane domain and YecC nucleotide-binding … (E. coli, UniProt P0AFT2 1-222; P37774 1-250).
T2 sequence (looked up) 1: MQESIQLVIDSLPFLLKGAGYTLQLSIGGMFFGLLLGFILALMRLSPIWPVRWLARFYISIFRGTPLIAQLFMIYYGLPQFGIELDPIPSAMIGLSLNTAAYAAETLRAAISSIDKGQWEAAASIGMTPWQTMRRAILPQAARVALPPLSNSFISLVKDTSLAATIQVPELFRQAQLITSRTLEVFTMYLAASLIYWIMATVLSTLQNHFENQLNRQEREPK
T2 sequence (looked up) 2: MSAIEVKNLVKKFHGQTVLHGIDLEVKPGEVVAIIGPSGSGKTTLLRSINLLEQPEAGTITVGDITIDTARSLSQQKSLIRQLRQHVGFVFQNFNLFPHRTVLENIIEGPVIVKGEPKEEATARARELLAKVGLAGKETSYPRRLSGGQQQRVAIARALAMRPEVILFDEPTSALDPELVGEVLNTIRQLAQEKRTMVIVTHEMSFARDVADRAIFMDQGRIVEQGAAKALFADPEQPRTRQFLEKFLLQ
Put plainly: cell-based or functional assay.

With `N[C@H](CS)C(=O)O` [D-cysteine], the affinity in assay [1], expressed as Kd, was 10 ± 3.4 µM.

In assay [1], `N[C@@H](CS)C(=O)O` [L-cysteine] yielded a Kd of 14.4 ± 2.4 µM.

With `N[C@@H](CSSC[C@H](N)C(=O)O)C(=O)O` [L-cystine], the affinity in assay [1], expressed as Kd, was 9.3 ± 2.8 µM. Also, the dTm entry in assay [2] was “the L-enantiomer of its oxidized dimeric form (Cys-S-S-Cys, cystine) also led to thermostabilization of FliY”.

B1: FliY, the substrate-binding protein (SBP) of the E. coli YecSC-FliY cysteine/cystine ABC import system (natural protein, UniProt P0AEM9 30-266, looked up)
chain: DEGLLNKVKERGTLLVGLEGTYPPFSFQGDDGKLTGFEVEFAQQLAKHLGVEASLKPTKWDGMLASLDSKRIDVVINQVTISDERKKKYDFSTPYTISGIQALVKKGNEGTIKTADDLKGKKVGVGLGTNYEEWLRQNVQGVDVRTYDDDPTKYQDLRVGRIDAILVDRLAALDLVKKTNDTLAVTGEAFSRQESGVALRKGNEDLLKAVNDAIAEMQKDGTLQALSEKWFGADVTK
As for B1, in assay [3], the “apparent Km for FliY of the stimulation of ATP hydrolysis by 1 μM YecSC (0.25–20 μM FliY), in the absence of substrate (apo FliY)” value amounted to 10.3 µM; the “apparent Km for FliY of the stimulation of ATP hydrolysis by 1 μM YecSC (0.25–20 μM FliY), in the presence of 100 μM L-cystine (holo FliY)” value came out at 1.1 µM; the “interaction ratio from the Michaelis–Menten fit of initial ATPase rates of YecSC against FliY concentration, without and with L-cystine” value was 1 FliY:YecSC; the “stimulation of the ATPase activity of YecSC by FliY with L-cystine, over basal activity” value was around 11 fold. In addition, the “stimulation of the ATPase activity of YecSC by substrate-free apo FliY, over basal activity” value in assay [3] was around 3 fold.

The term Kd denotes the constant that tells how readily two partners part at equilibrium.
